# Data reported in the supplement of paper PMC9732359.
# ± gives the uncertainty stated by the source.
# Assay: protein stability index of a GFP-peptide fusion (yeast GPS) (PSI 1-4); higher = more stable; sorted into four equal gates, so the index is relative within each strain
# Method in brief: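 Tiled 17-residue yeast protein peptides were fused downstream of GFP in a plasmid that also expresses Cherry, and the pooled library was carried in yeast. Mid-log cultures in leucine-free medium were sorted into four equal gates by GFP/Cherry fluorescence ratio, and plasmids from each gate were PCR-amplified and Illumina-sequenced, with reads assigned to strains by barcodes. The protein stability index for each peptide was each gate's read frequency times its gate number, summed.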
sequence,measurement,setting,value
ERYSDKYLKKRKIGISI [RPC31],protein stability index,doa10∆,1.61 ± 0.11
same,protein stability index,pdr5∆,2.39 ± 0.23
same,protein stability index,ubr1∆,2.44 ± 0.21
IASEVLIKQVPRLLGPQ [RPL1A],protein stability index,doa10∆,2.28 ± 0.13
same,protein stability index,pdr5∆,1.87 ± 0.14
same,protein stability index,san1∆,2.27 ± 0.15
same,protein stability index,ubr1∆,1.67 ± 0.068
KKHKQKKVLEIDFFKTD [BRN1],protein stability index,doa10∆,2.54 ± 0.037
same,protein stability index,pdr5∆,2.67 ± 0.043
same,protein stability index,san1∆,2.83 ± 0.039
same,protein stability index,ubr1∆,2.59 ± 0.035
AKRVENFNSSAPIADDN [DSN1],protein stability index,doa10∆,3.19 ± 0.084
same,protein stability index,pdr5∆,3.32 ± 0.075
same,protein stability index,san1∆,2.9 ± 0.1
same,protein stability index,ubr1∆,3.43 ± 0.059
VTLKGAKALESLASCLR [POP1],protein stability index,doa10∆,3.12 ± 0.073
same,protein stability index,pdr5∆,2.94 ± 0.069
same,protein stability index,san1∆,2.54 ± 0.078
same,protein stability index,ubr1∆,2.74 ± 0.07
TMEVKSFPILDQCVGQV [YMR129W/POM152],protein stability index,doa10∆,2.19 ± 0.09
same,protein stability index,pdr5∆,3.08 ± 0.11
same,protein stability index,san1∆,2.34 ± 0.13
same,protein stability index,ubr1∆,2.69 ± 0.06
NFYRPLLRSVLVLLELV [YML103C/NUP188],protein stability index,doa10∆,1.23 ± 0.066
same,protein stability index,pdr5∆,1.21 ± 0.087
same,protein stability index,san1∆,1.18 ± 0.12
same,protein stability index,ubr1∆,1.06 ± 0.074
SAAAAGNRNSSSVFLPS [BRR2],protein stability index,doa10∆,3.13 ± 0.062
same,protein stability index,pdr5∆,3.17 ± 0.063
same,protein stability index,san1∆,3.13 ± 0.046
same,protein stability index,ubr1∆,3.15 ± 0.059
FDINRSHKEGRRVPKEL [SEC65],protein stability index,pdr5∆,2.52 ± 0.24
EDSENPSDWQRNSFIRD [ITC1],protein stability index,doa10∆,3.1 ± 0.082
same,protein stability index,pdr5∆,3.12 ± 0.069
same,protein stability index,san1∆,3.14 ± 0.065
same,protein stability index,ubr1∆,3.27 ± 0.067
ESSHEQEEFVQFLQLDN [ECM29],protein stability index,doa10∆,3.5 ± 0.21
same,protein stability index,pdr5∆,3.31 ± 0.13
same,protein stability index,san1∆,3.22 ± 0.16
same,protein stability index,ubr1∆,3.29 ± 0.14
ETVFNYRLMIKRLNFSF [GRR1],protein stability index,doa10∆,1.84 ± 0.099
same,protein stability index,pdr5∆,1.3 ± 0.068
same,protein stability index,san1∆,1.27 ± 0.12
same,protein stability index,ubr1∆,1.31 ± 0.074
ALPRGARTATVSKKWAA [RPL14A],protein stability index,doa10∆,2.25 ± 0.067
same,protein stability index,pdr5∆,2.23 ± 0.065
same,protein stability index,san1∆,1.96 ± 0.1
same,protein stability index,ubr1∆,2.14 ± 0.056
ALTNELNELKAIKDKLE [YIL149C/MLP2],protein stability index,doa10∆,1.35 ± 0.061
same,protein stability index,pdr5∆,2.01 ± 0.07
same,protein stability index,san1∆,1.89 ± 0.096
same,protein stability index,ubr1∆,1.96 ± 0.058
NTATNALRPSDIFGANA [YOR098C/NUP1],protein stability index,doa10∆,3.08 ± 0.069
same,protein stability index,pdr5∆,3.24 ± 0.074
same,protein stability index,san1∆,3.27 ± 0.061
same,protein stability index,ubr1∆,3.2 ± 0.074
KEQTIQLPSKFTCSCNS [RPN14],protein stability index,doa10∆,2.15 ± 0.065
same,protein stability index,pdr5∆,2.53 ± 0.057
same,protein stability index,san1∆,1.96 ± 0.063
same,protein stability index,ubr1∆,2.16 ± 0.038
LERVKANAAKRAEAKAQ [RPL21A],protein stability index,doa10∆,3.14 ± 0.097
same,protein stability index,pdr5∆,3.25 ± 0.12
same,protein stability index,san1∆,3.36 ± 0.061
same,protein stability index,ubr1∆,3.14 ± 0.11
NLNRAFNGDQVIVELLP [DIS3],protein stability index,doa10∆,3.17 ± 0.11
same,protein stability index,pdr5∆,2.92 ± 0.18
same,protein stability index,ubr1∆,3.45 ± 0.15
AGGQRIVDDYWESLAKK [SWP82],protein stability index,doa10∆,1.84 ± 0.19
same,protein stability index,pdr5∆,2.42 ± 0.092
same,protein stability index,san1∆,2.45 ± 0.13
same,protein stability index,ubr1∆,2.39 ± 0.15
IRNLTVFTMKELAQYMK [RGR1],protein stability index,doa10∆,3.04 ± 0.24
same,protein stability index,pdr5∆,2.78 ± 0.22
same,protein stability index,san1∆,2.71 ± 0.2
same,protein stability index,ubr1∆,2.79 ± 0.08
DTETFDTVNSALENDVA [YML103C/NUP188],protein stability index,pdr5∆,3.63 ± 0.23
same,protein stability index,san1∆,3.16 ± 0.2
same,protein stability index,ubr1∆,2.69 ± 0.17
VQHDQILVMETSEEQTK [SWP82],protein stability index,doa10∆,2.99 ± 0.092
same,protein stability index,pdr5∆,2.91 ± 0.11
same,protein stability index,san1∆,2.94 ± 0.047
same,protein stability index,ubr1∆,2.85 ± 0.076
DTFVHVTDLSGKETIAR [RPS14B],protein stability index,doa10∆,2.88 ± 0.087
same,protein stability index,pdr5∆,2.98 ± 0.066
same,protein stability index,san1∆,2.83 ± 0.062
same,protein stability index,ubr1∆,2.98 ± 0.058
KNTQSPQTPLVEPVTER [SNU114],protein stability index,pdr5∆,2.87 ± 0.15
same,protein stability index,san1∆,2.72 ± 0.097
same,protein stability index,ubr1∆,3.01 ± 0.13
EPYARVSGDLNPIHVSR [FAS1],protein stability index,doa10∆,2.64 ± 0.14
same,protein stability index,pdr5∆,2.92 ± 0.092
same,protein stability index,san1∆,2.76 ± 0.086
same,protein stability index,ubr1∆,2.83 ± 0.1
VKDEAFDDLLKPVYKGK [RET1],protein stability index,doa10∆,3.35 ± 0.16
same,protein stability index,pdr5∆,3.32 ± 0.15
same,protein stability index,san1∆,3.3 ± 0.11
same,protein stability index,ubr1∆,3.12 ± 0.17
